# Test results from article PMC11638003, “Plant phytochrome interactions decode light and temperature signals” (The Plant Cell, 2024).
# No end group written: not given here.
# T1: Arabidopsis thaliana phytochrome B, N-terminal fragment encompassing the N-terminal extension (NTE) and the … (Arabidopsis thaliana, UniProt P14713 1-651, phycocyanobilin chromophore, covalently bound)
# T1 construct: Phytochrome B, Arabidopsis thaliana, GenBank CAA35222.1; N-terminal fragment with the NTE and the PCM (nPAS-GAF-PHY), lacking PAS1, PAS2 and the HKRD; source: E. coli LOBSTR, purified (Co2+-NTA IMAC, anion exchange); plasmid also encodes Synechocystis sp. heme oxygenase 1 and PcyA
# T1 sequence (looked up): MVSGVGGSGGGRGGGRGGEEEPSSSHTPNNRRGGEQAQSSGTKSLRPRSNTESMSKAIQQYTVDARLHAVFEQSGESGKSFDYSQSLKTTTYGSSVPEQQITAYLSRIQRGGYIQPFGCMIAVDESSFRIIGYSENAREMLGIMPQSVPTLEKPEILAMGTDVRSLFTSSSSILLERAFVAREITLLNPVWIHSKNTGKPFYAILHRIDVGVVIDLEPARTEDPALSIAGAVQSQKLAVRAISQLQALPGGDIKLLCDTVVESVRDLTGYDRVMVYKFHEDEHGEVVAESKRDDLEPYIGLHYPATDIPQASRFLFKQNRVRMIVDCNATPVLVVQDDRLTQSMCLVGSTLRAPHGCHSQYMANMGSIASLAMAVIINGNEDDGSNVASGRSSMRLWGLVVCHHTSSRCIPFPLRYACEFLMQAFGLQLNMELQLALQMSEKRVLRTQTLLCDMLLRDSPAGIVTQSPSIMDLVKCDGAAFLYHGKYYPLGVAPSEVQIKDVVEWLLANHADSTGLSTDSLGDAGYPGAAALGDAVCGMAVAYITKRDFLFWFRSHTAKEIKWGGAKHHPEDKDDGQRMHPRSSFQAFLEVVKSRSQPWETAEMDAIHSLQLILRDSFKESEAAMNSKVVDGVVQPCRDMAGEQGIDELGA
# T2: P6A-mScarlet-I (Arabidopsis PIF6 residues 14 to 53, APB.A portion, fused to mScarlet-I) (Arabidopsis thaliana, UniProt Q8L5W7 14-53)
# T2 construct: mScarlet-I: GenBank APD76536; source: E. coli LOBSTR, purified (IMAC, SENP2 cleavage, second IMAC, optionally anion exchange); not shown: His6-SUMO, N-terminal, cleaved; mScarlet-I, C-terminal, kept
# T2 chain (looked up): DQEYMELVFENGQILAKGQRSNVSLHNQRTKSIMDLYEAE
# How the values were obtained:
# P3A or PIF3 = assay: FRET or BRET; as a5 (association and dissociation kinetics after a red-light pulse) at several temperatures up to 30 °C; values told for 30 °C or for 30 °C against 15 °C
# [1] = molecular target: T1, Arabidopsis thaliana phytochrome B, …; assay: FRET or BRET; association kinetics at 15 °C after a 0.5-s pulse of red light (658 nm, 69 mW cm^-2, optical shutter); 20 nM PIF-mScarlet-I variant with 500 to 2,000 nM AtPhyB PCM, or 30 nM P6A-mScarlet-I with 750 to 2,500 nM AtPhyB (1-982); 50 mM Tris/HCl pH 8.0, 20 mM NaCl; pseudo-first-order, linear fit of koFR against the AtPhyB concentration; kaFR corrected for the Pfr fraction; Kd calculated from kdFR and kaFR …; details: both partners purified
# [2] = molecular target: T2, P6A-mScarlet-I (Arabidopsis PIF6 …); assay: FRET or BRET; as a5 (association and dissociation kinetics after a red-light pulse) at several temperatures up to 30 °C; values told for 30 °C or for 30 °C against 15 °C; details: both partners purified
"fold reduction of the affinity, 30 °C against 15 °C (P3A or PIF3) [fold]",Kd [1] [nM],koff [1] [s⁻¹],kon [1] [M⁻¹ s⁻¹],"fold change of kdFR, 30 °C against 15 °C [2] [fold]","fold reduction of the affinity, 30 °C against 15 °C [2] [fold]",Molecule
1.4 to 2.6,,,,,,"Arabidopsis thaliana phytochrome B, N-terminal fragment encompassing the N-terminal extension (NTE) and the photosensory core module (AtPhyB PCM) (from UniProt P14713 1-651) (domain or fragment)"
,322 ± 109,0.1,310000,,,"LESAQDRNPSPPVDEVVELVWENGQISTQSQSSRSRNIPPPQ-{mScarlet‑I} (domain or fragment, Arabidopsis thaliana, UniProt O80536 14-55, looked up, mScarlet-I: GenBank APD76536; source: E. coli LOBSTR, purified (IMAC, SENP2 cleavage, second IMAC, optionally anion exchange); not shown: His6-SUMO, N-terminal, cleaved; mScarlet-I, C-terminal, kept) [P3A-mScarlet-I (Arabidopsis PIF3 residues 14 to 55, APB.A portion, fused to mScarlet-I)]"
,133 ± 55,0.07,520000,,,"PIF6-mScarlet-I (Arabidopsis PIF6 residues 1 to 100 fused to mScarlet-I) (domain or fragment, Arabidopsis thaliana, UniProt Q8L5W7 1-100, looked up, mScarlet-I: GenBank APD76536; also called AtPIF6; source: E. coli LOBSTR, purified (IMAC, SENP2 cleavage, second IMAC, optionally anion exchange); not shown: His6-SUMO, N-terminal, cleaved) MMFLPTDYCCRLSDQEYMELVFENGQILAKGQRSNVSLHNQRTKSIMDLYEAEYNEDFMKSIIHGGGGAITNLGDTQVVPQSHVAAAHETNMLESNKHVD"
,,,,5,3,"Arabidopsis thaliana phytochrome B residues 1 to 982, AtPhyB (1-982) (domain or fragment, UniProt P14713 1-982, looked up, phycocyanobilin chromophore, covalently bound, the oligomeric state is not measured directly here; also called AtPhyB982; source: E. coli LOBSTR, purified (Co2+-NTA IMAC, anion exchange); plasmid also encodes Synechocystis sp. heme oxygenase 1 and PcyA) MVSGVGGSGGGRGGGRGGEEEPSSSHTPNNRRGGEQAQSSGTKSLRPRSNTESMSKAIQQYTVDARLHAVFEQSGESGKSFDYSQSLKTTTYGSSVPEQQITAYLSRIQRGGYIQPFGCMIAVDESSFRIIGYSENAREMLGIMPQSVPTLEKPEILAMGTDVRSLFTSSSSILLERAFVAREITLLNPVWIHSKNTGKPFYAILHRIDVGVVIDLEPARTEDPALSIAGAVQSQKLAVRAISQLQALPGGDIKLLCDTVVESVRDLTGYDRVMVYKFHEDEHGEVVAESKRDDLEPYIGLHYPATDIPQASRFLFKQNRVRMIVDCNATPVLVVQDDRLTQSMCLVGSTLRAPHGCHSQYMANMGSIASLAMAVIINGNEDDGSNVASGRSSMRLWGLVVCHHTSSRCIPFPLRYACEFLMQAFGLQLNMELQLALQMSEKRVLRTQTLLCDMLLRDSPAGIVTQSPSIMDLVKCDGAAFLYHGKYYPLGVAPSEVQIKDVVEWLLANHADSTGLSTDSLGDAGYPGAAALGDAVCGMAVAYITKRDFLFWFRSHTAKEIKWGGAKHHPEDKDDGQRMHPRSSFQAFLEVVKSRSQPWETAEMDAIHSLQLILRDSFKESEAAMNSKVVDGVVQPCRDMAGEQGIDELGAVAREMVRLIETATVPIFAVDAGGCINGWNAKIAELTGLSVEEAMGKSLVSDLIYKENEATVNKLLSRALRGDEEKNVEVKLKTFSPELQGKAVFVVVNACSSKDYLNNIVGVCFVGQDVTSQKIVMDKFINIQGDYKAIVHSPNPLIPPIFAADENTCCLEWNMAMEKLTGWSRSEVIGKMIVGEVFGSCCMLKGPDALTKFMIVLHNAIGGQDTDKFPFPFFDRNGKFVQALLTANKRVSLEGKVIGAFCFLQIPSPELQQALAVQRRQDTECFTKAKELAYICQVIKNPLSGMRFANSLLEATDLNEDQKQLLETSVSCEKQISRIVGD"
,308 ± 42,0.13,430000,,,"PIF3-mScarlet-I (Arabidopsis PIF3 residues 1 to 100 fused to mScarlet-I) (domain or fragment, Arabidopsis thaliana, UniProt O80536 1-100, looked up, mScarlet-I: GenBank APD76536; also called AtPIF3; source: E. coli LOBSTR, purified (IMAC, SENP2 cleavage, second IMAC, optionally anion exchange); not shown: His6-SUMO, N-terminal, cleaved) MPLFELFRLTKAKLESAQDRNPSPPVDEVVELVWENGQISTQSQSSRSRNIPPPQANSSRAREIGNGSKTTMVDEIPMSVPSLMTGLSQDDDFVPWLNHH"
